Test results reported in patent US10117953B2, “Antibody drug conjugates” (Novartis AG, priority 2013, dated 2018).

Columns and labels:
human cKIT ECD = target: T1, human cKIT ECD (Homo sapiens, UniProt P10721); experiment: SPR (Biacore 2000) affinity measurement; format: binding; conditions: Table 5
T1 construct: Human cKIT tr. variant 2 , residues 26-520-TAG; His6 (C); made in house; host or cells: HEK293 derived cell lines (293FS), transient transfection
Description: Affinity of the antibodies to cKIT species orthologues and also to cKIT was determined using SPR technology using a Biacore® 2000 instrument (GE Healthcare, Pittsburgh, Pa.) and with CM5 sensor chips.
Briefly, HBS-P (0.01 M HEPES, pH 7.4, 0.15 M NaCl, 0.005% Surfactant P20) supplemented with 2% Odyssey® blocking buffer (Li-Cor Biosciences, Lincoln, Nebr.) was used as the running buffer for all the experiments. The immobilization level and analyte interactions were measured by response unit (RU). Pilot experiments were performed to test and confirm the feasibility of the immobilization of the anti-human Fc antibody (Catalog number BR100839, GE Healthcare, Pittsburgh, Pa.) and the capture of the test antibodies.
For kinetic measurements, the experiments were performed in which the antibodies were captured to the sensor chip surface via the immobilized anti-human Fc antibody and the ability of the cKIT proteins to bind in free solution was determined. Briefly, 25 μg/ml of anti-human Fc antibody at pH 5 was immobilized on a CM5 sensor chip through amine coupling at flow rate of 5 μl/minute on all two flow cells to reach 10,500 RUs. 0.1-1 μg/ml of test antibodies were then injected at 10 μl/min for 1 minute. Captured levels of the antibodies were generally kept below 200 RUs. […]

[1] = system: surface cKIT on GIST-T1 cells; experiment: Ab-mediated internalization of surface cKIT by flow cytometry; format: cell-based, human; conditions: 10 ug/ml, 30 min to 24 hr at 37° C.
Description: The kinetics of cKIT antibody mediated internalization was evaluated by treating with antibody in a cell monolayer using a temperature shift method and flow cytometry readout. GIST-T1 (kindly provided by Dr. Takahiro Taguchi, Kochi U., Japan) cells were seeded at 2.5×10E5 cells/well in five 12-well tissue culture treated plates (BD Falcon 353043). The cells were incubated in a tissue culture incubator at 37° C. with 5% CO2 overnight. The following day medium was removed and replaced with 450 ul fresh medium. […] All cells were incubated for 1 hr on ice, followed by two washes with 1 mL 1× Phosphate buffered saline (PBS) and resuspended in 500 μl cell culture medium. Plates #2-5 were transferred to 37° C. and harvested at time points; 30 min, 2 hr, 4 hr and 24 hr at 37° C. with 5% CO2. 100 μl of cell dissociation buffer (Gibco Cat#13150-016, Life Technologies, Carlsbad, Calif.) was added to plate#1 (4° C. binding control) and incubated at 37° C. until cells were detached. […] The following day, all samples were analyzed using the BD FACSCanto II® equipment using a HTS system (BD Biosciences, San Jose, Calif.). Samples were analyzed with FlowJo software to obtain the Geometric Mean values of fluorescence for the Phyeoerythrin channel, FIG. 13A is a plot of % of initial cell surface binding vs […] at 37° C.×100.

[2] = target: T2, cKit receptor on normal human CD34+ bone marrow cells (Homo sapiens, UniProt P10721); experiment: cKit receptor levels on bone marrow cells by flow cytometry; format: cell-based; conditions: 10 μg/ml
T2 construct: host or cells: normal human CD34+ bone marrow cells (primary)
Description: In another internalization experiment, the impact of NEG085 on cKit receptor levels was evaluated on human bone marrow cells. Normal human CD34+ bone marrow cells (All Cells, Cat #ABM022F, Emeryville, Calif.) were thawed and washed with 10 mL of StemPro0-34 SFM medium (Gibco, Life Technologies, Carlsbad, Calif.). Cells were resuspended in 1.25 mL of StemPro-34 SFM medium at 4×10^5 cells/mL and split equally into two tubes. […] 100 μL of cell suspension was collected at each timepoint (0, 15, 30, 60, 120, and 240 min) from each condition, and placed into an ice cold collection tube to cease internalization. Cells were washed with 3 mL of ice-cold FBS stain buffer and resuspended in 100 μL of FBS stain buffer. […] of 104D2-BV421 (mouse anti-human IgG1 k, Biolegend) was added to each tube and incubated on ice for 1 hour. Following another wash with FBS stain buffer, total cKit receptors were measured by flow cytometry by assessing the mean fluorescence intensity of BV421 on a FACS Canto II® (BD Biosciences, San Jose, Calif.).

T2 sequence (P10721 26-976): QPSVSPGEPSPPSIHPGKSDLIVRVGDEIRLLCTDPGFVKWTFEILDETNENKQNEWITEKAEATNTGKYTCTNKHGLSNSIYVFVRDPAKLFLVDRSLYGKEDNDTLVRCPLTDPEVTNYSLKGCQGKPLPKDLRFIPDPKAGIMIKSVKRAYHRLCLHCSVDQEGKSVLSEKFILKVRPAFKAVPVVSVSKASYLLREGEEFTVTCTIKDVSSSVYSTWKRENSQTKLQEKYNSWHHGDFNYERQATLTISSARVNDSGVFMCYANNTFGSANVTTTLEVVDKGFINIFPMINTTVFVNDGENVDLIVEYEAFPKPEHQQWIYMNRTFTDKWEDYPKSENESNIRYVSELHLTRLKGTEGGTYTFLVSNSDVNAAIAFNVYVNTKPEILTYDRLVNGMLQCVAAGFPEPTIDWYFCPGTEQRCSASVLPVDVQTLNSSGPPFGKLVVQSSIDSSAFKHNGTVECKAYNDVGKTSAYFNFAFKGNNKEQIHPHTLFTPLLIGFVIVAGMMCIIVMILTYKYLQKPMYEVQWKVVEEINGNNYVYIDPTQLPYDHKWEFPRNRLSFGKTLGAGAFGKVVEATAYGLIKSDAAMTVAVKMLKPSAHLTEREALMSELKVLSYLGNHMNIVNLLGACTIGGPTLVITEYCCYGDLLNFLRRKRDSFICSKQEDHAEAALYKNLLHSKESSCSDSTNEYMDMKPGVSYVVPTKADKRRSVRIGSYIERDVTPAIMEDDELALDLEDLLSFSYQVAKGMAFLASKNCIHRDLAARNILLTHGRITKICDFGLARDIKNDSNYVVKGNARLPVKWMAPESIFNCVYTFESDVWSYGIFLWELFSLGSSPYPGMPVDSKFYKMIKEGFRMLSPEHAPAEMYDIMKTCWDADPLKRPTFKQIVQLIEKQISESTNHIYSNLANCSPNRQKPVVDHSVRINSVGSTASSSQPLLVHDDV
Chain of surface cKIT on GIST-T1 cells (P10721 26-509 limits assumed): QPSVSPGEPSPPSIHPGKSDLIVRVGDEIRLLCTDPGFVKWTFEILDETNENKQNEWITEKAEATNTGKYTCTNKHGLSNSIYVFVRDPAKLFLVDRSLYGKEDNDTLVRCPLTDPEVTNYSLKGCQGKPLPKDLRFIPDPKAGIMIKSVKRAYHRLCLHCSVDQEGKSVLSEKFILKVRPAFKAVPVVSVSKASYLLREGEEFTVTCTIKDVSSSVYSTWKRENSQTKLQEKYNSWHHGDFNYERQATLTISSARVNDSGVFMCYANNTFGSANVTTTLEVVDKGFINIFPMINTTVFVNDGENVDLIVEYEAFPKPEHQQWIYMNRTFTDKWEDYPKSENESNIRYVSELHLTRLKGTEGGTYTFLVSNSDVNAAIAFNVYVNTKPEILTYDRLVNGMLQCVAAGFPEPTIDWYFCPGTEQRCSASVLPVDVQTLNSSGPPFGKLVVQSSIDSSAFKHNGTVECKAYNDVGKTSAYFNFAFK
T1 sequence (P10721 26-520 isoform P10721-2): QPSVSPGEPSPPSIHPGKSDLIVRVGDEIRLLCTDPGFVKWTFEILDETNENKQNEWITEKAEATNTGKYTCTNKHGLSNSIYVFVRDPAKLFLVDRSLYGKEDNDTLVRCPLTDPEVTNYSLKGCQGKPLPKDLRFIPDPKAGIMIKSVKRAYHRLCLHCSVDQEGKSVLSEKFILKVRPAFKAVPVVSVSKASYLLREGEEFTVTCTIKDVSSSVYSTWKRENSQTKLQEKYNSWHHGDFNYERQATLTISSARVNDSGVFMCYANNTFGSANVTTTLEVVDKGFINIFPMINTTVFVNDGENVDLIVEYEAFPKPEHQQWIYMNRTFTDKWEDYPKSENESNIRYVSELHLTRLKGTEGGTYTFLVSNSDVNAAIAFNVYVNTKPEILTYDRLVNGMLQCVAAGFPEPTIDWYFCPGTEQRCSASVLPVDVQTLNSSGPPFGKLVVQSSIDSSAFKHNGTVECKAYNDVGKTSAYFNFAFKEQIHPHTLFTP

B1: NEG085: anti-cKIT antibody of Table 1; VH SEQ ID NO 82, VL SEQ ID NO 91; derived from 9P3 (antibody, V domains shown)
VH: EVQLVESGGGLVQPGGSLRLSCAASGFAFSGYYMAWVRQAPGKGLEWVANINYPGSSTYYLDSVKGRFTISRDNAKNSLYLQMNSLRAEDTAVYYCARGDYYGTTYWYFDVWGQGTTVTVSS
VL: DIQMTQSPSSLSASVGDRVTITCRASQSISSYLNWYQQKPGKAPKLLIYYTSRLQSGVPSRFSGSGSGTDFTLTISSLQPEDFATYYCQQGRRLWSFGGGTKVEIK
reaction with human cKIT (human cKIT ECD): nanomolar level | internalization after binding cKIT on the cell surface [1]: rapidly internalized into the cell | time of the bulk of the internalization [2]: 15 min | cKIT internalization ([2]; 0-240 min): rapidly internalized
